Source: patent publication US10870710B2, “Synthetic oligosaccharide subunits of the Psl exopolysaccharide of pseudomonas aeruginosa and uses thereof” (Medlmmune Limited, priority 2013, dated 2020)

Key:
P. aeruginosa = conditions: cited from earlier work
[1] = system: attachment of Pseudomonas aeruginosa to epithelial cells; conditions: mAb concentration giving max. inhibition of cell attachment; cited from earlier work
[2] = biological target: Pseudomonas aeruginosa Psl exopolysaccharide; conditions: anti-Psl mAb binding; cited from earlier work
Psl = test: mAb reactivity with Psl after mild alkaline treatment during carbohydrate purification; type: binding, P. aeruginosa; conditions: data not shown
Source text: This observation raises the possibility that the class I mAb binds to a conformational epitope or a yet to be elucidated sub-stoichiometric Psl isoform. The potential for the latter is supported by the observation that mild alkaline, but not exhaustive protease treatment, during carbohydrate purification abolishes Cam-003 reactivity while maintaining WapR-001 and WapR-016 reactivity (data not shown).

Row | Molecule | OPK EC50 (P. aeruginosa) [mg/L] | Cell attachment max. inhibition [1] [µg/mL] | Kd [2] [µM] | mAb reactivity after mild alkaline treatment of Psl (Psl)
1 | WapR-003: anti-Psl monoclonal antibody, class II epitope; VH SEQ ID NO: 9, VL SEQ ID NO: 10 (antibody, V domains shown, WapR-003 VH; WapR-003 VL) VH: QMQLVQSGGGLVQPGGSLRLSCSASGFTFSSYPMHWVRQAPGKGLDYVSDISPNGGATNYADSVKGRFTISRDNSKNTVYLQMSSLRAEDTAVYYCVMGLVPYGFDNWGQGTMVTVSS VL: QTVVTQPASVSASPGQSITISCAGTSGDVGNYNFVSWYQQHPGKAPKLLIYEGSQRPSGVSNRFSGSRSGNTASLTISGLQAEDEADYYCSSYARSYTYVFGTGTKLTVL | 0.278 | 30.0 | 0.0122 | –
2 | WapR-002: anti-Psl monoclonal antibody, class II epitope; VH SEQ ID NO: 7, VL SEQ ID NO: 8 (antibody, V domains shown, WapR-002 VH; WapR-002 VL) VH: QVQLVQSGGGLVQPGGSLRLSCSASGFTFSSYPMHWVRQAPGKGLDYVSDISPNGGSTNYADSVKGRFTISRDNSKNTLFLQMSSLRAEDTAVYYCVMGLVPYGFDIWGQGTLVTVSS VL: QTVVTQPASVSGSPGQSITISCTGTSSDVGGYNYVSWYQQHPGKAPKLMIYEVSNRPSGVSNHFSGSKSGNTASLTISGLQAEDEADYYCSSYTTSSTYVFGTGTKVTVL | 0.396 | 30.0 | 0.0126 | –
3 | WapR-001: anti-Psl monoclonal antibody, class II epitope; VH SEQ ID NO: 5, VL SEQ ID NO: 6 (antibody, V domains shown, WapR-001 VH; WapR-001 VL) VH: EVQLLESGGGLVQPGGSLRLSCSASGFTFSRYPMHWVRQAPGKGLEYVSDIGTNGGSTNYADSVKGRFTISRDNSKNTVYLQMSSLRAEDTAVYHCVAGIAAAYGFDVWGQGTMVTVSS VL: QAGLTQPASVSGSPGQSITISCTGTSSDIATYNYVSWYQQHPGKAPKLMIYEGTKRPSGVSNRFSGSKSGNTASLTISGLQAEDEADYYCSSYARSYTYVFGTGTELTVL | 0.310 | 30.0 | 0.00084 | maintaining
